Reference: patent US20130316958A1 (University of Southern California, priority 2010, published 2013)
Non-standard residues stand in square brackets, D forms with d. No end group written: not given here.

What was measured:
Atg3 [1] = target: T1, Atg3 (Homo sapiens, UniProt Q9NT62); assay: GST pulldown of KSHV vFLIP α-helix fragments and deletion mutants; format: binding; details: GST fusions or deletion mutants in HEK293T
T1 construct: GFP (alternative construct GFP-Atg3, not on the same molecule as GST); expressed in transfected cells; host or cells: HEK293T
Description: Due to the substantial similarities between DEDI and DED2, Atg3 bound each DED of KSHV vFLIP with a similar affinity. Structural analyses have shown that the DED1 and DED2 of KSHV vFLIP and MCV 159L contain six and five α-helixes, respectively. (Yang et al. (2005) Mol. Cell. 20:939-949); Bagneris et al. (2008) Mol. Cell. 30:620-631). To further define the Atg3 binding sequences, each DED of KSHV vFLIP was divided into small α-helix fragments based on the previous structural analysis and expressed as mammalian GST fusions. Truncated mutant constructs of KSHV-vFLIP and hATG3 were created by subcloning the PCR products of cDNA fragments containing each domain of the associated genes into pcDNA5/FRT/TO. HEK293T cells were transfected with mutant constructs for GST pulldown as described above, followed by immunoblotting with αV5. […] In contrast, vFLIP mutants carrying a loss of 14-3-3σ, IKKαβγ complex, or FADD interaction bound Atg3 and blocked rapamycin-induced autophagy as efficiently as wild-type vFLIP.

[2] = system: KSHV-infected TREX-BCBL-Vector cells; assay: GFP-LC3 puncta autophagy assessment after peptide treatment; format: cell-based; details: 30 or 50 μM peptide, 12 hr
Description: (§1) The vFLIP α2 (10 aa) and α4 (12 aa) peptides that independently bound Atg3 at high efficiency were fused with the HIV-1 TAT protein transduction domain for intracellular delivery (Gump and Dowdy (2007) Trends Mol. Med. 13:443-448) and tested for their potential effects on autophagy induction. The K-α2 and K-α4 peptides contained KSHV vFLIP aa20-29 and aa128-139 regions, respectively, as retro-inverso versions to circumvent the proteolytic degradation. Mutant peptides K-α2m and K-α4m were also included, which replaced the hydrophobic core residues of the K-α2 (L21F22L23) and K-α4 (F130L-WVY139) peptides with alanines, as well as the C-α2 and C-α4 peptides containing the cFLIPs regions aa19-28 and aa128-139, respectively. At 12 hr post-transfection with GFP-LC3, KSHV-infected TREX-BCBL-Vector and TREX-BCBL-vFLIP cells were incubated with various concentrations of the peptides or rapamycin for an additional 12 hr, followed by an assessment of the GFP-LC3 puncta and cell death. […] Peptide-treated TREX-BCBL-Vector and TREX-BCBL-vFLIP cells were subjected to immunoblotting with αLC3 and aactin.

TREX-BCBL-Vector cells = assay: Cell death after overnight peptide incubation; format: cell-based; details: identical conditions, 30 or 50 μM
Description: as §1

ALL cells = assay: Tumor cell viability by trypan blue exclusion, ALL cells; format: cell-based; details: BV-173 and SUP-B15, FIG. 5
Method: Tumor cells were treated with peptides at various concentrations for 12 hours and their viability measured by trypan blue exclusion, followed by analyses using the Beckman Coulter Z2 Particle Count and Size Analyzer (BC Z2 CS Analyzer). A minimum of 100 cells per sample using triplicate samples was counted per condition per experiment.

NIH3T3 cells = assay: GFP-LC3 autophagy with ectopic FLIP expression; format: cell-based; details: Hank's solution 4 hr or 2 μM rapamycin 3 hr
Method: At 12-16 hours post-transfection with GFP-LC3, NIH3T3 cells containing vector or the FLIP gene were treated with Hank's solution for 4 hr or with 2 μM rapamycin for 3 hr. Subsequently, GFP-LC3 was detected using an inverted fluorescence microscope, autophagy was quantified as means (±SD) of the combined results from three independent experiments, and autophagosomes were visualized through scanning electron microscopy. NIH3T3-Vector, NIH3T3-KSHV-vFLIP, and NIH3T3-MCV-159L cells were treated with Hank's solution for 4 hr, followed by immunoblotting with anti-LC3 and anti-βTubulin. At 12-16 hr post-transfection with GFP-LC3, TREX-BCBL-Vector and TREX-BCBL-vFLIP cells were treated with doxycycline for 24 hr, followed by incubation with 2 μM rapamycin for an additional 12 hr. The detection of GFP-LC3 and autophagy levels was performed as described above, vFLIP expression was detected by IB with anti-Flag, and autophagosomes were visualized by scanning EM. TNF-induced apoptosis and NF-κB luciferase assay were performed as previously described (Matta and Chaudhary (2004) Proc. Natl. Acad. Sci. USA 101:9399-9404).
The anti-autophagic properties of vFLIP, as well as the related cFLIP, HSV, and MCV, were evaluated by ectopic expression of HVS, vFLIP, MCV 159L, and the short form of cFLIP (cFLIPs) in NIHI3T3 cells. DNA fragments corresponding to the coding sequences of the KSHV-vFLIP, human cFLIPs, MCV-MC159, and HVS-vFLIP genes were amplified via polymerase chain reaction and subcloned into pcDNA5/FRT/TO between the AflII and BamHI restriction sites or pEF-IRES-puro between the AflII and XbaI sites. Starvation studies were carried out by transfecting cells containing vector or the FLIP gene with GFP-LC3, then 12-16 h post-transfection, treating the cells with Hank's solution for 4 hr or with 2 μM rapamycin for 3 hr. Autophagy was assessed by GFP-LC3 redistribution using an inverted fluorescence microscope, quantifying autophagy as means (±SD) of the combined results from three independent experiments. Autophagosomes were visualized through scanning electron microscopy. […]

Atg3 [3] = target: T1, Atg3; assay: Co-immunoprecipitation of FLIP with Atg3 in HEK293T cells; format: binding; details: endogenously and exogenously expressed Atg3
Method: The ability of FLIP to bind to Atg3 was evaluated by co-immunoprecipitation assay. HEK293T cells were transfected with Flag-vFLIP and/or GFP-Atg3 or Flag-vFLIP and/or GST-Atg3, and at 48 hr post-transfection, cells were harvested and lysed in an NP40 buffer supplemented with complete protease inhibitor cocktail (Roche). After pre-clearing with protein A/G agarose beads for 1 hr at 4° C., whole-cell lysates were used for immunoprecipitation with αFlag, αGFP, or GST. Generally, 1-4 μg of the antibody was added to 1 ml of the cell lysate and incubated at 4° C. for 8 to 12 hr. The immunoprecipitates were then washed extensively with a lysis buffer and eluted by boiling them with an SDS loading buffer for 5 min. Following immunoprecipitation, samples were treated to immunoblot using αAtg3 (1:500) (Novus).

[4] = system: human Atg3 deletion mutants; assay: GST pulldown with Atg3 deletion mutants; format: binding; details: GST-Atg3, N-terminal and C-terminal regions
Description: The overall structure of yeast Atg3 has a unique hammer-like shape with the N-terminal and C-terminal regions discretely responsible for Atg7 and Atg8 (equivalent to mammalian LC3) binding, respectively. (Yamada et al. (2007) J. Biol. Chem. 282:8036-8043). Based on the structure of yeast Atg3, human Atg3 deletion mutants fused with a GST mammalian expression vector were constructed: GST-Atg31-93, GST-Atg3193-268, GST-Atg3268-315, and GST-Atg3193-315-GST-tagged hATG3 and hATG3 mutant genes were cloned into a pcDNA5/FRT/TO derivative encoding an N-terminal GST epitope tag between the BamHI and NotI sites. GST pulldown with Flag-KSHV vFLIP, Flag-cFLIPs, Flag-MCV 159L, or Flag-HVS vFLIP along with GST-Atg3, GST-Atg3 N-terminal region (Nt), or GST-Atg3 C-terminal region (Ct) was performed as described above and was followed by immunoblotting with aFlag or aGST.

[5] = target: T2, Atg3 (human Atg3, E2-like enzyme of the LC3 conjugation system) (human, UniProt Q9NT62 1-314); assay: co-immunoprecipitation from HEK293T cells
T2 construct: also called hATG3; GFP-Atg3

[6] = target: T2, Atg3 (human Atg3, E2-like enzyme of the …); assay: binding of Atg3 to the separate DEDs of vFLIP; method not detailed
NF-κB = NF-κB luciferase reporter assay; format: cell-based; details: NIH3T3 cells, 48 hr post-transfection
Description: To determine the effects of the interactions of vFLIP with FADD, IKKαβγ, and 14-3-3σ on anti-autophagy activity, NIH3T3 cells stably expressing various vFLIP mutants were constructed: m14-3-3σ, which lacks 14-3-3σ-binding; mTRAF2, which lacks TRAF2-binding (Guasparri et al. (2006) EMBO Rep. 7:114-119); 67AAA and 58AAA, which have reduced NF-κB activation (Matta and Chaudhary (2004) Proc. Natl. Acad. Sci. USA 101:9399-9404); and mFADD, which lacks FADD-binding (Yang et al. (2005) Mol. Cell. 20:939-949). These cells were treated with either cyclohexamide (CHX) alone or CHX and TNF-α for 12 hr or with 2 μM rapamycin for 3 hr. Propidium iodide (PI) staining and flow cytometry analysis were performed to determine apoptosis levels. Alternatively, NIH3T3 cells containing vector, KSHV vFLIP, or its mutants were transfected with an NF-κB-luciferase reporter construct and a control renilla luciferase plasmid, pRL-SV40 (Promega). At 48 hr post-transfection, luciferase activity was measured with a luminometer using a dual luciferase assay kit (Promega) and normalized with renilla luciferase activity to determine transfection efficiency. GFP-LC3 puncta were detected using an inverted fluorescence microscope and the autophagy levels quantified as means (±SD) of the results from three independent experiments.

T2 sequence (Q9NT62 whole entry): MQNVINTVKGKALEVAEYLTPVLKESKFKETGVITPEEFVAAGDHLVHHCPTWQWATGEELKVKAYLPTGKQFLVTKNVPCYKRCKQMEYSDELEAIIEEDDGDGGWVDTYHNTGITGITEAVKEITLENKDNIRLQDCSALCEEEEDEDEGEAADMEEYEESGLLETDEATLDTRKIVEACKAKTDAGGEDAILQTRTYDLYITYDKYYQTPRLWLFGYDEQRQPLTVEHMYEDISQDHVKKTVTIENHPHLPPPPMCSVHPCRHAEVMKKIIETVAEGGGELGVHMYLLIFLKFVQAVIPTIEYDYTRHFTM
T1 sequence (Q9NT62 whole entry, the tested form may be a part): as the sequence (Q9NT62 whole entry) above

## EVVLFLLNVF (also: GST fusion) [DED1α2 helix, α2 region of KSHV vFLIP aa 20-29, tested as mammalian GST fusion]
Atg3 [1]
  Atg3 binding (GST pulldown): individually sufficient for Atg3 binding

## QTFLHWVYCMEN [DED2 α4 helix]
Atg3 [1]
  Atg3 binding (GST pulldown): individually sufficient for Atg3 binding

## RRRQRRKKRGY-G ([dR][dR][dR][dQ][dR][dR][dK][dK][dR]G[dY]G; not fully specified; printed as RRRQRRKKRGY-G) [HIV-1 TAT only, HIV-1 TAT protein transduction domain alone, reference compound]
[2]
  autophagy induction (GFP-LC3 puncta): no increase in autophagy
TREX-BCBL-Vector cells
  cell death (in words): no increase in autophagy nor cell death

## RRRQRRKKRGY-G-FVNLAAAVVE [K-α2m]
[2]
  autophagy induction (GFP-LC3 puncta): no increase in autophagy
TREX-BCBL-Vector cells
  cell death (in words): no increase in autophagy nor cell death

## RRRQRRKKRGY-G-NEMCAAAHAATQ [K-α4m]
[2]
  autophagy induction (GFP-LC3 puncta): no increase in autophagy
TREX-BCBL-Vector cells
  cell death (in words): no increase in autophagy nor cell death
ALL cells
  anticancer activity in ALL cell lines: significant anticancer activities

B1: HVS vFLIP (other)
chain: MDLKTTVLHITDSFTEEEMYCLLFLINGCIPRNCNAVKISDLIIETLSKSTQWDICLTQCLYVLRKIELLLNLFQVTKEDVKQSFFTQLQLETHVLTLVNVNNNLTAKDEKRLCFILDQFFPRNVVASSVILCVFSNMLCEMPVLECLCQLKKCLKQIGRSDLAKTV
notes: also called Flag-HVS vFLIP
NIH3T3 cells
  suppression of starvation- and rapamycin-induced autophagy: strongly suppressed starvation- and rapamycin-induced autophagy
Atg3 [3]
  interaction with Atg3 (co-immunoprecipitation): interacted with Atg3 as efficiently as KSHV-vFLIP
[4]
  Atg3 region bound (GST pulldown): Atg3 binding patterns similar to KSHV vFLIP
[5]
  binding result: binds

B2: KSHV vFLIP DED2 (other)
chain: FSPYQLTVLHVDGELCARDIRSLIFLSKDTIGSRSTPQTFLHWVYCMENLDLLGPTDVDALMSMLRSLSRVDLQRQVQTLMGLHLSGPSHSQHYRHTP
notes: also called DED2 of KSHV vFLIP
[6]
  binding result: binds

B3: MCV 159L (MCV vFLIP) (other)
chain: MSDSKEVPSLPFLRHLLEELDSHEDSLLLFLCHDAAPGCTTVTQALCSLSQQRKLTLAALVEMLYVLQRMDLLKSRFGLSKEGAEQLLGTSFLTRYRKLMVCVGEELDSSELRALRLFACNLNPSLSTALSESSRFVELVLALENVGLVSPSSVSVLADMLRTLRRLDLCQQLVEYEQQEQARYRYCYAASPSLPVRTLRRGHGASEHEQLCMPVQESSDSPELLRTPVQESSSDSPEQTT
notes: also called MCV-MC159; MCV MC159
NIH3T3 cells
  suppression of starvation- and rapamycin-induced autophagy: strongly suppressed starvation- and rapamycin-induced autophagy
Atg3 [3]
  interaction with Atg3 (co-immunoprecipitation): interacted with Atg3 as efficiently as KSHV-vFLIP
[4]
  Atg3 region bound (GST pulldown): Atg3 binding patterns similar to KSHV vFLIP
NF-κB
  NF-κB activation: did not carry out NF-κB activation
[5]
  binding result: binds

B4: KSHV vFLIP DED1 (other)
chain: MATYEVLCEVARKLGTDDREVVLFLLNVFIPQPTLAQLIGALRALKEEGRLTFPLLAECLFRAGRRDLLRDLLHLDPRFLERHLAGTMSY
notes: also called DED1 of KSHV vFLIP
[6]
  binding result: binds
